Assay results published in US20090104207A1 (published 2009).
*: point of attachment. Biotin = O=C1N[C@H]2[C@H](CS[C@H]2CCCCC(=O)*)N1

Legend:
[1] = biological target: HCV E1 envelope glycoprotein, genotype 1a strain H77, on retroviral pseudoparticles (hepatitis C virus genotype 1a strain H77, UniProt P27958 192-383); assay: cell-based or functional assay
[2] = biological target: HCV E1 envelope glycoprotein, genotype 2a isolate JFH1, on retroviral pseudoparticles (hepatitis C virus genotype 2a, UniProt Q99IB8 192-383); assay: cell-based or functional assay
[3] = biological target: HCV E1 envelope glycoprotein, genotype 4a isolate UKN4a, on retroviral pseudoparticles (hepatitis C virus genotype 4a); assay: cell-based or functional assay
IGP 2137 = biological target: T1, IGP 2137 (hepatitis C virus); assay: peptide ELISA (fine-mapping)
T1 construct: also called RMAWDM

IGP 2254 = biological target: T2, IGP 2254 (hepatitis C virus, SMILES …); assay: BIAcore, antibody immobilized, peptide in solution
T2 peptide: Biotin-GGITGHRMAWDMMMNWS-NH2

IGP 2138 = biological target: T3, IGP 2138 (hepatitis C virus); assay: ELISA, biotinylated peptide on streptavidin plates (FIG. 9)
T3 construct: also called WDMMMNW

IGP 2241 = IGP 2241 (hepatitis C virus); assay: as above
IGP 2242 = IGP 2242 (hepatitis C virus); assay: as above
IGP 3472 = IGP 3472 (hepatitis C virus); assay: ELISA: biotinylated peptide on streptavidin-coated plate, serial dilution of 5D2; EC50 from Prism, shown as difference in log EC50 versus IGP 2254

Chain of HCV E1 envelope glycoprotein, genotype 2a isolate JFH1, on retroviral pseudoparticles (Q99IB8 192-383 limits assumed): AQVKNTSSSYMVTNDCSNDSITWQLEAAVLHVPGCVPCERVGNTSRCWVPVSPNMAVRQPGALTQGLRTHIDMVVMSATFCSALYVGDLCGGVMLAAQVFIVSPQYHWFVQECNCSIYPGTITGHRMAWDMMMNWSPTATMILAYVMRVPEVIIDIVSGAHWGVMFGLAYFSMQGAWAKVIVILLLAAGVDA
Chain of HCV E1 envelope glycoprotein, genotype 1a strain H77, on retroviral pseudoparticles (P27958 192-383 limits assumed): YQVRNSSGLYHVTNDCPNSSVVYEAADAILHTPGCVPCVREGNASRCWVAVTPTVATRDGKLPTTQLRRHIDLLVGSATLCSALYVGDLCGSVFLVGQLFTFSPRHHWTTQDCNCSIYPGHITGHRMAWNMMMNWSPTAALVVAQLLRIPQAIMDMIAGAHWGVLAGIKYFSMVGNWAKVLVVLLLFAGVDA

B1: 5D2 (antibody, V domains shown)
VH: QVQLVESGGGVVQPGRSLRLSCVASGFTFSHYAMHWIRQAPGKGLEWVAVVSYDGSNKFYVDSVKGRFTISRDNSKNTVYLQMNSLRAVDTAVYYCARDPGVVTGSWSDSDGPPIHWGQGTLVTVSS
VL: DIVVTQSPDSLAVSLGERATITCKSSQSVFYSSNNKNYLGWYQQKPGQPPKLLIYWASTRASGVPDRFSGSGSGTDFTLTISSLQAEDVAVYYCQQYYTSWAFGQGTKVEIKR
notes: also called 5D2H9; IGH 534
Question: How did the “lowest concentration of antibody exhibiting at least 50% neutralization of HCVpp versus control” value [1] turn out when B1 was run?
Answer: 25 µg/mL

Question: And the “lowest concentration of antibody exhibiting at least 50% neutralization of HCVpp versus control” value [2]?
Answer: 6.2 µg/mL

Question: And the “lowest concentration of antibody exhibiting at least 50% neutralization of HCVpp versus control” value [3]?
Answer: > 25 µg/mL

Question: Does B1 bind (IGP 2137)?
Answer: no binding

Question: What about the Kd (IGP 2254) of the same binder?
Answer: 60 pM

Question: And the koff (IGP 2254)?
Answer: 9.46e-05 s⁻¹

Question: And the kon (IGP 2254)?
Answer: 1.71e+06 M⁻¹ s⁻¹

Question: Does B1 bind (IGP 2138)?
Answer: no binding

Question: Does B1 bind (IGP 2241)?
Answer: no binding

Question: Does B1 bind (IGP 2242)?
Answer: binds

Question: Does B1 bind (IGP 3472)?
Answer: no binding
